Assay: label from the status in PepcDB records

Row | Sequence | protein production
1 | DSASQAEQFLKLVHADKLTVPVYAQVQQMLAQRFAQAKAPESKKAVLERYQAKANAELDRAIGWDKIKPELIKLYTTNFTESELKDLNAFYQSPLGKKVLEKMPRLTAESAQLTQAKLQGAVEPVNKLMADMDKELGVAAPAQKKK | not failed
2 | MAKPIRVLLYYKYVPIENAEQFAADHLAFCKSIGLKGRILVADEGINGTVSGEYETTQKYMDYVHSLPGMEDLWFKIDEEEEQAFKKMFVRYKKEIVHLGLEDNNFDSDINPLETTGAYLSPKEFKDALLDEDTVVLDTRNDYEYDLGHFRGAIRPDIRNFRELPQWVRDHKEEFMDKRVVVYCTGGVRCEKFSGWLVREGYKDVGQLHGGIVTYGKDPEVQGELWDGKLYVFDERIAVDVNHVDPIVVGKDWFDGTPCERYVNCGNPFCNRRILTSEENEDKYLRGCSHECRVHPRNRYVSENDLSQEEVVERLAAIGESLDVTPA | failed
3 | MRKLLLGLSALTLATASAAAAQDPGPAAPVQYEVAFPNATHREARITATFRKVPKGALQLRMSRSSPGRYAIHEFAKNVYQVTAVDGAGKPLKVDRAEPYGWSVSGHDGTVKVTYTLYADRGDGTYSQIDTTHAHLNMPATFLWAVGYHDKPIRVRFERADPSWKIATQLPPVAGQPDSFWAPNLQYFMDSPTELSAMTVREWKVTDKGRDYTFRLALHHTGTEADADTFAEKLKAIVPEHIKVFGELPKFDYGEYTFIADYMPQITGDGMEHRNSTFISQPRSLFRGNFSQLGTASHELFHAWNVERIRPAELEPFDFTKANPTPSLWLAEGFTQYYGPLLIRRAGQSSMDEFLTGLSGTLNGVVNGPGRLYGSPQEMSLRAPFVDAAAALDPVNPNIFTSYYPYGAVIGLALDLQLRGRDKPLSLDDFMKQMWRAHGVTEKPYTPADVRAALAKTTGDQAFADAFFKASIEGSALPDFAPLLERAGLKLRQKAPKKAWLGAARVKVSGTELLLDAPPVPNSPLYGAGVEVGDRIISIGRFVFANESDWTDALDRLKPGEAMTVQFIQRGQVREAPMTIAADPTLEVVRFEKVDLKPTEAQLAFRTAWLGAEAEAAK | failed
4 | MNLPFAPQSFAALLVMVMTLAHGSVSAQESFRVELGRDGETLGDMRPVFLKFESRPLPAISPLEVARRYQKLFESSDEPEVRIDALNRLNNIRNRSGEDVGFSEEREAAIYEEVLESYESILAKGSFSGRLDELLYQMAKAHALTGQPEQSIARLKQLVGLYPNSELVPEARFRIAEAAFSAGRYAEAEAGYRQLLEHDSHQELAAKARYMLGWSQFKQGNPAWARASASFTAVLDQQLPDHSALANPPAHSMDMLEDTFRVLALMASRQSDARTLADWLDGRESSAWQHLLYDRLADLHAVERRYERAVLVNNAFVSEFPGHTASPDFLAQSVSYWQLAGNTSKALAARDDYIQRLGAEARFQTMTPEQKGLWAQYSRFLADHYYATGTDLSSRNQTAAASEAWAKAAHYYERLAPRSEQAGELLHLAGDARLLAGDRTEAVRNFRAAAYDHRHGDSRDSAWAAIRIVREDLELASGENRTATLLVLSNEEQRYAEAFGPDQRLSGLRADLANRWYDLGEFERALHYASSTLTWERAGVTERYAAWLVTARIRQKNNEFGLAERAWRQALPLADEASQDAESQRRSLLEQLASAIYQQGEKAARAGDATLAVAHFQRVEGVMPGSEIAIKARYDAANTLLRASDWLAAINELQRFRIDYPSHELTPETSEKLVLAYQESGQGLKAAEELLNRSETLADPWPTRLRAAAIFHAEGDSASRNQLYKNWLAVAPTPDSADEHVQHQTMRQRLIESGDSVIAVREQLLARERASQWHSDGTLKWAADAALFFGAQTAERFAGIALVHPLEQALARKQAAMQQAQEYLQEAESFAGDGVRSEVLYRRAELYRTLASDLMSSEVPAELNEMEAMQYQMLLEEEAFPLEEEAMALHARNHERIPTEGFDEWIQRSLEALATMHPGRYDRQLRWMSWTTDTNQGGS | failed
5 | MMPPNQPLATYLDDAPSHGGMMRERRYYRAYGLTVASDVALPELEPTEPAAADILIAIGTIDMPKPSSEAATIFRFEPDRQYLAWHAVGAFLISDADRIDIEPAPGVDDALLAFPLLGPVMALLLHQRGLLVLHASAIAAAGKGAIFMGDKGAGKSTTASALIRAGHELLTDDVVALDLARPDAPMIVAGFPQIKLAADAAAAISLGRAEVRPQVHPAIEKMQHRLHGAFSGGMVPATRIYVLERGAKAAITALPGIAALPAIIKFSYVTRFGRAALSGDFAALHLRQCSAIANHVGVFRLEVPTGLDRIGEAVALVESDLAAGDLAAGRRRR | failed
6 | MPDVLPHPDGPDSTARPWCSVVIPVLHEAVTIAAQVAHVRHVAARCGMEVEVVVADGAKERDTLAALPEGCCTAVASCPGRARQMNAGAGKARGETLLFLHADTHLPPEAFTLLRRARQAGIRAGAFRLGIAATGLWFRLVERLACWRNRLVRTPYGDQAQFFDAALFRAVGGYPDQPLMEDVEVMRRLRKAGERIVILPGRVETSARRWFVEGPLRCTLRNLCLRLLYALGVPAHALSRWYRAHKERP | failed
7 | MHTISLKRILIYIVLLVTSFALLVGFTVNIVSQVAQYQESLHDQALSYSRIVAGNAASSLVFNDNANEKQRLSSLENTSFIQHVHVYKMDETSNELTFFSSYNKKGLPPIPARFAKLDKLTTPQTNDNYIEVSQPVVLDDEVIGYVYLRGSLEQARLFMWRSIGIASVVFVLTLLLCWLITLRLRKTIVTPLDSVVDVISQVARDKNYSLRLAPSKLVEFDMMAHAFNTMLDRVQQHISRQRRAEEEASQLNTELERQVTQRTQALKESNSELLKTLEQLHQYQGQLVESEKMASLGDMVAGIAHEVNTPIGLSVTASTLLQDKLTIMQEKFDEKRISTSEFERFLSDCDENLQIIYRNLGRAADLVTSFKQVAVDQSSEIDRDIHIPSFMNDVLISVKPRRLDPEKFPIRISCPEGLTVRAKAGPLNQVLINLIVNSMIHAFEGYSSGRVDISFTMVGDDKLEMVYTDNGKGVPSDINRKIFDPFVTTKRGSGGSGLGLHLVYNLVTQVLGGNIHFFSEEKNGVEFIVRFPVTLVSNA | failed
8 | MIDSQFQFTVLTPTYNRAVTLHRVFQSLQRQTCRDFEWVVVDDGSTDNTHEVVRAWQAQADFPIRYVWQHNQHKKTAFNRGVREARGMLVVGLDSDDEIPPDALAILKDAWEGIPADRRETYVAVTGLCARPDGSIVGDRFPQDVFDSTAVDMYFRYRVQGEKFGAMRADVLRRFPFPEDVAGFVPESLVWWAISRAGYLSRFINRVVRVYHDTPGGLSQGGVSLSSNIQGLYLLAWDMLQHHLDWFRYRPREFIMAAARYTRFRLHLDNSGLPTAVQAYRLTQPSARLLVLLMWPLGYLLYRRDRRRGVA | failed
9 | MLMEVKALAHAKNDSVAVATDDLKEGEEIQVAFLDNNEKTKITTAEVIPLGHKISLKDIKKGENVIEYGEVIGAATKDIKRGEHVHIHNIKSLRW | not failed
10 | MERDLAGRIVALVSPTGLRTSYSYDACGRMVDVTDPAGRVTRYSYTSDFQVATVTYPTGETARYEYDAMGRVVLSHVPGAGVSQYRYDPCGRLVFSCDLVYGQRHFSYDLAGQLVAATNPAGGVSRYGYDRCGRLVTRTDPGGGLTTYQYNECGQMIAATDPLGRVTEYTWDKSGTLAAITRPDGTVVSRRLGPKGVEEYIDDQLVSRILITPTTRTVTIDDYTDPAFPWRHLLGYDPRGLLLTHSVAPVPGDESIVDEGPLTSSEQWWYDAEGRRVRHLTLTGDSIDYAYTNTGVLGSIRHSRLGEVSLEWDAVGRLAKLGSPLDQQQWGYTDGFVTSHTSSRGSTTISRDEMGRVLRVSAPYGDFRYGYDDSGSLTSADGLDGSSRRWVYDTAGRLVTTTCQDAGTSQTCHYDYDLAGELVSTVTQLGPGDSTVETHYRYDPCGRRIEAASSAGMREEFRWDSRGWLAGVMTFRAGRSHEFATHVDAFGCLTDVSGPAGRTPIAWDLATGEPQLVQVGGIPALPLPDGSVLTPVSADSDQDEPWRRPATDPLDPYTLIQEHLTAGISMTGGHLGVAGLAWMGARVYDSTTASFLTIDPLAAPPGSLWEAASYGYAATNPLALADPLGLRPVTDAQMRQFASTIDTRNLWDRHIRNVFSWETLGGVALATAGGLLMCFGAEVPGAMLIGAGGDMVFQQVVRGHVDYGEVALSGALAPTGGSGLSEIAGLGTRTLLTRGIEAGTTQGYVMGNYHWVTSPGPHNAETYLEQVGGETLSGAAFGGITATIGGKTYDALPDSIPTGHFGPHNTILRVGKQPETFIRKYQRNGKLDFGQATSFRGATFKSKIAIKPITTYRSWSDPDYEVGGYVSRTRPAGPLQTQLDLALAPQWGNKANHISEYEIPQFAPFYEGAAGVQPVKAIEDSDTLGQLPGGGNQILITDKQVLDRWKSKK | failed
11 | MAFIESWAKRTWLVPPQMQLYVDYKIKVTEILTNYTSIEEIHSYSIDESFLDITESLNFFYPDIRNRYEQMNLITLDLQREILDKLGLYVTVGMGDNPLLAKLAMDNYAKHNQNMRALIRYLEHHHHHH | failed
12 | MKHVGDDVVAIISQDGKVIREIPLTGHKGNEQFTIKGKGAQYNLMEVDGERIRIKEDNSPDQVGVKMGWKSKAGDTIVCLPHKVFVEILEHHHHHH | not failed
13 | MLERLKRIHYMFWISLIFMIFPILSVVTGWLSAWHLLIDILFVVAYLGVLTTKSQRLSWLYWGLMLTYVVGNTAFVAVNYIWFFFFLSNLLSYHFSVRSLKSLHVWTFLLAQVLVVGQLLIFQRIEVEFLFYLLVILTFVDLMTFGLVRIRIVEDLKEAQVKQNAQINLLLAENERSRIGQDLHDSLGHTFAMLSVKTDLALQLFQMEAYPQVEKELKEIHQISKDSMNEVRTIVENLKSRTLTSELETVKKMLEIAGIEVQVENHLDKSSLTQELESTASMILLELVTNIIKHAKASKVYLKLERTEKELILTVRDDGCGFASISGDELHTVRNRVFPFSGEVSVISQKHPTEVQVRLLYKERK | failed
14 | MSVLAIIFLLNLKPTIYSIVGIFLIIILDVTVAVALYFLLRPVSKNISMLMSLFRIVYAAIFTTALYKIHDLTAFYSILDLGYIFFGIHLFLLGFLVYKSGYMPKWLGALIFIASTGYIIDPLLRFSGYAVEIGMYTFFGEVLFAFWLVIKGRKLSEVVSTP | failed
15 | MAKAAKRFRTPSTTRVLYVRHAHAHGRQTWGGDDNKRPLDKKGRRQAEMLVPMLLPFKPTAIYSAVPDRCQATALPLADELGLDVSVNRLFGDDAWETDPEACKKRFTDVVAQGGVPMIVGQGDIIPEMIKWFSENGTLPIDEKIKAKKGSVWVLSFHDGVFTGADYLEHHHHHH | failed
16 | PLTTHNMNSSTSNKVALNAAREGIVLLKNQGDLLPLDKQKVKKIAVVGTLAKYAPPTGFGSANVMASHYVSELSGLQQMAPNAKVEFIDGLSLDPSTSAWNTTDAAGNSVQGMKVEYFSNTNWSGDAAVTRTEQHVDLDWANDKNLPFESNTSTSDPYTTKGSTAGELNGDTSSTSIRYTGKITPTQSGEQVFKVRADGAVRLWVNGKKIIDNGDGKPLPGNSIPPTIPEFAKINLEAGQSYDVKLEYSRRAGYLSTMGGLVGVQLSSASLNAPQDLSGYDAVVVAVGNSNEYEGEGFDHSFDLPEFQNELIQNIAKVNPNTVVTMYGGTGLKMSDWIEQVPVALHAFYPGQNGGQALAEILFGKINPSGKLPISIERNIEDNPAYASFPKFDNQNTLAEMDYKDDLMLGYRGYEKKGIKPLYPFGYGL | failed
17 | RNVWVVAELDEQGVSEASLQMLTPARRIADKLGESVVGVIAGPPGSSQLAVEMVERGADEVIVVEHERLSEYYPDVVGSVIVELSLKYKPSVILFAATARGREMAPYVANTLKTGITADCTDFDVDPKTRDVLLIRPPFSAIMLAYIRTPFRRPQIGTARPNVFPLPERQPGRQGRIVREEVEPPEPMARLVNRV | not failed
